We go through four molecules from paper PMC5258196 (Biochemistry, 2016).

Experiment [1] has as its target GrxS14 (Arabidopsis thaliana) (UniProt Q84Y95). The following applies: cited from earlier work.
The target in experiment [2] is T1, E. coli monothiol glutaredoxin Grx4 (E. coli, UniProt P0AC69 1-115).
T1 sequence (looked up): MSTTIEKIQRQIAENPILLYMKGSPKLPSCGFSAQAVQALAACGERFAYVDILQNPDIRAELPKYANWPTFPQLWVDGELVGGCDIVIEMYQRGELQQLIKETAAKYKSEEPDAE
Briefly: ITC. In general terms: ITC needs no label: the signal is the heat of the interaction.

In experiment [3] the target is T2, S. cerevisiae monothiol glutaredoxin Grx3 (S. cerevisiae, UniProt Q03835 1-250).
T2 sequence (looked up): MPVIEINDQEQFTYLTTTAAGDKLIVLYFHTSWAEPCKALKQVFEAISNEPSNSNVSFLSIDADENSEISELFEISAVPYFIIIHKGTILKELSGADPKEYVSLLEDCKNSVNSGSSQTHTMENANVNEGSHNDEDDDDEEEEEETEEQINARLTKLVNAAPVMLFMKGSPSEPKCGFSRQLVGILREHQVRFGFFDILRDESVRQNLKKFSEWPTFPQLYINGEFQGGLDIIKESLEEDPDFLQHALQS
Briefly: ITC.

GrxS14 (Arabidopsis thaliana), sequence (Q84Y95 64-173): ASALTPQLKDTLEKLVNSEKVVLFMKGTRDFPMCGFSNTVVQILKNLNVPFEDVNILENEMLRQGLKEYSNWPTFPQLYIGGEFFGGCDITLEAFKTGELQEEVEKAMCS

Take BolA1 (from UniProt Q682I1): in experiment [1], the Kd was 7 µM.

B1: E. coli BolA-like protein IbaG (natural protein, UniProt P0A9W6 1-84, looked up)
chain: MENNEIQSVLMNALSLQEVHVSGDGSHFQVIAVGELFDGMSRVKKQQTVYGPLMEYIADNRIHAVSIKAYTPAEWARDRKLNGF
For B1, in experiment [2], binding was put at a Kd of 3.4 ± 0.1 µM, the dH is -24.7 ± 0.418 kJ/mol and the “stoichiometry N” value turned out to be 0.7 ± 0.01 sites.

B2: E. coli BolA (natural protein, UniProt P0ABE2 1-105, looked up)
chain: MMIRERIEEKLRAAFQPVFLEVVDESYRHNVPAGSESHFKVVLVSDRFTGERFLNRHRMIYSTLAEELSTTVHALALHTYTIKEWEGLQDTVFASPPCRGAGSIA
Regarding B2, in experiment [2], the Kd turned out to be 4.6 ± 0.9 µM, the dH was -13 ± 0.418 kJ/mol and the “stoichiometry N” value came out at 0.97 ± 0.03 sites.

B3: S. cerevisiae Fra2 (natural protein, UniProt P53082 1-120, looked up)
chain: MTGERIEKVKINDEFAKSHFLTTQWRETKRQRHYKMPVTEQGLRERIESAIPQVYHIIVTDLSYGCGQSFDIVVVSDFFQGKSKLMRSRAVNKAVKEELQEIHAFSCKCYTEEEWSKIVV
For the molecule B3, in experiment [3], the affinity, expressed as Kd, was 20.8 ± 6.6 µM; the dH is -42.3 ± 22.6 kJ/mol; the “stoichiometry N” value was 0.4 ± 0.19 sites.

As usually defined, the Kd is the concentration at which binding is half-saturated. The term stoichiometry N denotes the number of molecules, sites or subunits per partner or assembly.
